From PMC6476931 come the findings set out here.

The assay has as its target Human fibrinogen (human) (UniProt P02671). As to the kind of experiment: ELISA; Fg coated on wells (5 μg/ml, 0.5 μg/well); GST-vWbp or GST-Coa proteins in 1% BSA, 0.05% Tween 20, TBS, 1 h at room temperature; detected with HRP anti-GST; one-site fit, apparent KD, mean of three experiments. In general terms: ELISA stands for enzyme-linked immunosorbent assay.

Human fibrinogen (human), sequence (P02671 36-866, chain 1 of 3): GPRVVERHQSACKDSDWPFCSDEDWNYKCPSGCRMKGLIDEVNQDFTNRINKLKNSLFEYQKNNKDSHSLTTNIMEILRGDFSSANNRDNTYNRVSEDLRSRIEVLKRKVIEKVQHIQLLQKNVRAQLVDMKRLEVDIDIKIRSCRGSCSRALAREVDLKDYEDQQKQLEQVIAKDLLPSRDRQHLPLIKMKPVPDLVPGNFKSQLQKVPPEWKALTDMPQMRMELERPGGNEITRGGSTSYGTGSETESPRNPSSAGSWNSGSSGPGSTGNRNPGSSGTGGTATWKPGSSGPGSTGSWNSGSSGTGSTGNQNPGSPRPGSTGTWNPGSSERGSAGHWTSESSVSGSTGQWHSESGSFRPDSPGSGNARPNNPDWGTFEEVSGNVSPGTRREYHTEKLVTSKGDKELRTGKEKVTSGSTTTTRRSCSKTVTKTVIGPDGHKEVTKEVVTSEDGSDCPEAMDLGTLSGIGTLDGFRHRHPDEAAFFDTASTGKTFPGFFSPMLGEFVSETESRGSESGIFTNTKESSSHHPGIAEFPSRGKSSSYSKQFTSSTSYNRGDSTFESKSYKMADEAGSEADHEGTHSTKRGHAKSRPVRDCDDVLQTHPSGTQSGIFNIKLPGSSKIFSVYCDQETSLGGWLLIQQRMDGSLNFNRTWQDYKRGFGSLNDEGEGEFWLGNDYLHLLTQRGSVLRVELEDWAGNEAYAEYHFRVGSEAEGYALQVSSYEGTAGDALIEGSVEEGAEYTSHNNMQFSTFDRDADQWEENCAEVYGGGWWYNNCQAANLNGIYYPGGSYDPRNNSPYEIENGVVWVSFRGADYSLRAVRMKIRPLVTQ
Human fibrinogen (human), sequence (P02675 45-491, chain 2 of 3, further chain): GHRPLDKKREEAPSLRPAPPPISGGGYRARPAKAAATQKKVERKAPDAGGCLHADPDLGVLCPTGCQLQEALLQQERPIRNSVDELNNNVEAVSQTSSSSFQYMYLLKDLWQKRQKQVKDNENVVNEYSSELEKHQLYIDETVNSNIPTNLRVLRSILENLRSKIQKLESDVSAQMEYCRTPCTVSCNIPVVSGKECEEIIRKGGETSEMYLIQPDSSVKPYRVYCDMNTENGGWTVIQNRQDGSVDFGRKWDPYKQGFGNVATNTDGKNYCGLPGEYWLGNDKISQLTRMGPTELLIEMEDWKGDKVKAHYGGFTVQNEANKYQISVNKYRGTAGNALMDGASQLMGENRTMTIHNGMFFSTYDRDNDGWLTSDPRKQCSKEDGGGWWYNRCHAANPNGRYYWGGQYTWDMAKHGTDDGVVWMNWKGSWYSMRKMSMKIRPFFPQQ
Human fibrinogen (human), sequence (P02679 27-453, chain 3 of 3, further chain): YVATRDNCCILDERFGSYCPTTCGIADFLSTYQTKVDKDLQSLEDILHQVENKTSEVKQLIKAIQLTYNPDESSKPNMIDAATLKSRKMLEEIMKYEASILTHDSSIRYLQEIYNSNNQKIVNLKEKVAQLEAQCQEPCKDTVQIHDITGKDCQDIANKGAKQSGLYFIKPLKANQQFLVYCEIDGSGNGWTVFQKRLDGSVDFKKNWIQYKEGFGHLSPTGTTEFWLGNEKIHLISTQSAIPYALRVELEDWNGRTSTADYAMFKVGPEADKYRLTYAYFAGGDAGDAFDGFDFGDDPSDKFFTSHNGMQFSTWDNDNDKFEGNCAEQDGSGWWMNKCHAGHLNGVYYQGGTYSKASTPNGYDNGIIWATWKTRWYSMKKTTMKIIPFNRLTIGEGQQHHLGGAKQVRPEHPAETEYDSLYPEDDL

For “GST-vWbp-C (C-terminal half of vWbp) (domain or fragment)”, the Kd is 38 nM.
As for “GST-vWbp-N (N-terminal half of vWbp) (domain or fragment)”, the Kd was determined as 3.2 nM.
